Test results from patent publication US20220331401A1 (Stanford University, published 2022).
Values belong to the binder of their own block, whether it stands above or below them.

Assays:
[1] = target: T1, recombinant human CLCF1 (cardiotrophin-like cytokine factor 1), residues 28-225 (human, UniProt Q9UBD9 28-225); test: microtiter plate-based assay (capture of the CNTFR construct, detection with anti-CLCF1)
T1 construct: Only one recombinant CLCF1 preparation is described; also called CLCF1-His; not shown: His tag (named CLCF1-His, detected with anti-HIS antibody)
T1 sequence: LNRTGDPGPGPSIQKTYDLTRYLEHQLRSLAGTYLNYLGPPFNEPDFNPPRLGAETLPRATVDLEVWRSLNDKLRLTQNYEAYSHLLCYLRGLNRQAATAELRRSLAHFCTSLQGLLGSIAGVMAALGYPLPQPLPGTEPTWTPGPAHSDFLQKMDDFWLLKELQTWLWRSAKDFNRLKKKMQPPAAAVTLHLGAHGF

[2] = target: T2, recombinant human CLCF1 (cardiotrophin-like cytokine factor 1), residues 28-225 (UniProt Q9UBD9 28-225); test: ELISA; ±6
T2 chain: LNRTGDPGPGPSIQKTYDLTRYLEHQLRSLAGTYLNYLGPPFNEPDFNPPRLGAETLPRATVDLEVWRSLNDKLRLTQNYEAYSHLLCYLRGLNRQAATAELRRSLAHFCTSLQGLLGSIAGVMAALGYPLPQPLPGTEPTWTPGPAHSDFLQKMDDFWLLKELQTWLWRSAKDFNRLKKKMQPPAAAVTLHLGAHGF

[3] = target: T2, recombinant human CLCF1 …; test: yeast display flow cytometry; apparent Kd, ±0.006
[4] = target: T2, recombinant human CLCF1 …; test: yeast display flow cytometry; apparent Kd, ±0.07
[5] = target: T2, recombinant human CLCF1 …; test: yeast display flow cytometry; apparent Kd, ±0.4
[6] = target: T2, recombinant human CLCF1 …; test: yeast display flow cytometry; apparent Kd, ±0.02
[7] = target: T2, recombinant human CLCF1 …; test: yeast display flow cytometry; apparent Kd, ±5
[8] = target: T2, recombinant human CLCF1 …; test: yeast display flow cytometry; apparent Kd, ±3
[9] = target: T2, recombinant human CLCF1 …; test: yeast display flow cytometry; apparent Kd, ±0.003
[10] = target: T1, recombinant human CLCF1 …; test: yeast display, flow cytometry titration with CLCF1
Text: Directed evolution was used to engineer a soluble CNTFR variant with stronger affinity for CLCF1 and lack of binding to gp130 and LIFR. It was hypothesized that such a molecule would act as an efficient ligand trap and antagonize CLCF1-mediated oncogenic signaling. To develop a high-affinity receptor decoy, DNA encoding the extracellular domain of CNTFR was subjected to random mutagenesis via error-prone PCR. […] The library was screened to enrich for variants with increased CLCF1 binding using flow cytometry. After 3 rounds of screening, T174P and S237F appeared as consensus mutations, with substantial diversity observed at other amino acid positions. To probe additive effects of these mutations, 20 randomly selected distinct clones from the sorted populations were shuffled using the Staggered Extension Process (StEP) method to create a second library. A combination of equilibrium binding and kinetic off-rate screens were used to sort this library to impose increased screening stringency (FIG. 2, panel C). […]
Yeast displaying the CNTFR constructs were incubated with varying concentrations of CLCF1 for 12 h at room temperature to reach equilibrium binding. […] Then samples were washed and analyzed by flow cytometry using BD Accuri flow cytometer. Samples were analyzed on BD Bioscience software, and data were analyzed using FlowJo software (Treestar Inc).

[11] = target: T2, recombinant human CLCF1 …; test: ELISA; ±4
[12] = target: T3, recombinantly produced CNTF (ciliary neurotrophic factor) (Homo sapiens (Human), UniProt P26441 1-200); test: microtiter plate-based binding assay
T3 sequence: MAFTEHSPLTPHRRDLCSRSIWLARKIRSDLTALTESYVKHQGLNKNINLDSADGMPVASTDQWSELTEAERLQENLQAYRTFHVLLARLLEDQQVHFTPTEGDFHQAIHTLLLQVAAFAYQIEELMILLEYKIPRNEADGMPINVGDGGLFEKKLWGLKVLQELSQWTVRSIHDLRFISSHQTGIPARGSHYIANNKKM

[13] = target: T4, mouse CLCF1 (mouse, UniProt Q9QZM3 28-225); test: microtiter plate-based binding assay
T4 sequence (looked up): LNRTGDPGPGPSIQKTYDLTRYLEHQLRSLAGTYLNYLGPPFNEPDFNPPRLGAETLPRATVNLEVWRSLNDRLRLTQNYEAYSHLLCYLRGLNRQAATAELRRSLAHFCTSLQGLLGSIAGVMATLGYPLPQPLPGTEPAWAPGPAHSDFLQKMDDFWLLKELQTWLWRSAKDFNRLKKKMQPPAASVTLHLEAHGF

[14] = target: T5, mouse CLCF1 (mouse, UniProt Q9QZM3 28-225); test: ELISA; ±7
T5 chain: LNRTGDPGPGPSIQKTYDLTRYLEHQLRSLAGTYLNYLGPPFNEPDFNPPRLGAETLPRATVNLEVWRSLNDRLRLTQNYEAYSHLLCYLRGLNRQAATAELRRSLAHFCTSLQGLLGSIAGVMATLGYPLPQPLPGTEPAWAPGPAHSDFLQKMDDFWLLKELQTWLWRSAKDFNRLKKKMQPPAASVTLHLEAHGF

B2: Variant 3 (T174P, S237F, I287F) (protein)
chain: MAAPVPWACCAVLAAAAAVVYAQRHSPQEAPHVQYERLGSDVTLPCGTANWDAAVTWRVNGTDLAPDLLNGSQLVLHGLELGHSGLYACFHRDSWHLRHQVLLHVGLPPREPVLSCRSNTYPKGFYCSWHLPTPTYIPNTFNVTVLHGSKIMVCEKDPALKNRCHIRYMHLFSPIKYKVSISVSNALGHNATAITFDEFTIVKPDPPENVVARPVPSNPRRLEVTWQTPSTWPDPEFFPLKFFLRYRPLILDQWQHVELSDGTAHTITDAYAGKEYIIQVAAKDNEFGTWSDWSVAAHATPWTEEPRHLTTEAQAAETTTSTTSSLAPPPTTKICDPGELGSGGGPSAPFLVSVPITLALAAAAATASSLLI
- Kd [3]: 0.049 nM

B3: Variant 5 (S237F, I287F) (protein)
chain: MAAPVPWACCAVLAAAAAVVYAQRHSPQEAPHVQYERLGSDVTLPCGTANWDAAVTWRVNGTDLAPDLLNGSQLVLHGLELGHSGLYACFHRDSWHLRHQVLLHVGLPPREPVLSCRSNTYPKGFYCSWHLPTPTYIPNTFNVTVLHGSKIMVCEKDPALKNRCHIRYMHLFSTIKYKVSISVSNALGHNATAITFDEFTIVKPDPPENVVARPVPSNPRRLEVTWQTPSTWPDPEFFPLKFFLRYRPLILDQWQHVELSDGTAHTITDAYAGKEYIIQVAAKDNEFGTWSDWSVAAHATPWTEEPRHLTTEAQAAETTTSTTSSLAPPPTTKICDPGELGSGGGPSAPFLVSVPITLALAAAAATASSLLI
- Kd [4]: 0.04 nM

B4: Variant 1 (S237F) (protein)
chain: MAAPVPWACCAVLAAAAAVVYAQRHSPQEAPHVQYERLGSDVTLPCGTANWDAAVTWRVNGTDLAPDLLNGSQLVLHGLELGHSGLYACFHRDSWHLRHQVLLHVGLPPREPVLSCRSNTYPKGFYCSWHLPTPTYIPNTFNVTVLHGSKIMVCEKDPALKNRCHIRYMHLFSTIKYKVSISVSNALGHNATAITFDEFTIVKPDPPENVVARPVPSNPRRLEVTWQTPSTWPDPEFFPLKFFLRYRPLILDQWQHVELSDGTAHTITDAYAGKEYIIQVAAKDNEIGTWSDWSVAAHATPWTEEPRHLTTEAQAAETTTSTTSSLAPPPTTKICDPGELGSGGGPSAPFLVSVPITLALAAAAATASSLLI
- Kd [5]: 41 nM

B5: Variant 2 (T174P, S237F) (protein)
chain: MAAPVPWACCAVLAAAAAVVYAQRHSPQEAPHVQYERLGSDVTLPCGTANWDAAVTWRVNGTDLAPDLLNGSQLVLHGLELGHSGLYACFHRDSWHLRHQVLLHVGLPPREPVLSCRSNTYPKGFYCSWHLPTPTYIPNTFNVTVLHGSKIMVCEKDPALKNRCHIRYMHLFSPIKYKVSISVSNALGHNATAITFDEFTIVKPDPPENVVARPVPSNPRRLEVTWQTPSTWPDPEFFPLKFFLRYRPLILDQWQHVELSDGTAHTITDAYAGKEYIIQVAAKDNEIGTWSDWSVAAHATPWTEEPRHLTTEAQAAETTTSTTSSLAPPPTTKICDPGELGSGGGPSAPFLVSVPITLALAAAAATASSLLI
- Kd [6]: 0.89 nM

B6: Neg sort (R110Q, T174P, Y177H, K178N, S237F, I287F) (protein)
chain: MAAPVPWACCAVLAAAAAVVYAQRHSPQEAPHVQYERLGSDVTLPCGTANWDAAVTWRVNGTDLAPDLLNGSQLVLHGLELGHSGLYACFHRDSWHLRHQVLLHVGLPPQEPVLSCRSNTYPKGFYCSWHLPTPTYIPNTFNVTVLHGSKIMVCEKDPALKNRCHIRYMHLFSPIKHNVSISVSNALGHNATAITFDEFTIVKPDPPENVVARPVPSNPRRLEVTWQTPSTWPDPEFFPLKFFLRYRPLILDQWQHVELSDGTAHTITDAYAGKEYIIQVAAKDNEFGTWSDWSVAAHATPWTEEPRHLTTEAQAAETTTSTTSSLAPPPTTKICDPGELGSGGGPSAPFLVSVPITLALAAAAATASSLLI
- Kd [7]: 0.014 nM

Other lines, results leading:

- binding result [1]: binds
- Kd [2]: 0.075 nM
B1: soluble eCNTFR with a C-terminal hexahistidine tag (receptor)
chain: QRHSPQEAPHVQYERLGSDVTLPCGTANWDAAVTWRVNGTDLAPDLLNGSQLVLHGLELGHSGLYACFHRDSWHLRHQVLLHVGLPPQEPVLSCRSNTYPKGFYCSWHLPTPTYIPNTFNVTVLHGSKIMVCEKDPALKNRCHIRYMHLFSPIKHNVSISVSNALGHNATAITFDEFTIVKPDPPENVVARPVPSNPRRLEVTWQTPSTWPDPEFFPLKFFLRYRPLILDQWQHVELSDGTAHTIAAAYAGKEYIIQVAAKDNEFGTWSDWSVAAHATPWTEEPRHLTTEAQAAETTTSTTSSLAPPPTTKICDPGELGS
notes: also called eCNTFR-His; not shown: C-terminal hexahistidine tag

- Kd [8]: 0.019 nM
- Kd [9]: 0.019 nM
- Kd [10]: 0.02 nM
B7: yeast-displayed CNTFR variant 4 (R110Q, T174P, S237F, I287F) (receptor)
chain: AVVYAQRHSPQEAPHVQYERLGSDVTLPCGTANWDAAVTWRVNGTDLAPDLLNGSQLVLHGLELGHSGLYACFHRDSWHLRHQVLLHVGLPPQEPVLSCRSNTYPKGFYCSWHLPTPTYIPNTFNVTVLHGSKIMVCEKDPALKNRCHIRYMHLFSPIKYKVSISVSNALGHNATAITFDEFTIVKPDPPENVVARPVPSNPRRLEVTWQTPSTWPDPEFFPLKFFLRYRPLILDQWQHVELSDGTAHTITDAYAGKEYIIQVAAKDNEFGTWSDWSVAAHATPWTEEPRHLTTEAQAAETTTSTTSSLAPPPTTKICDPGELGS
notes: not shown: Aga2p fusion partner and linkers of the pCTCON2 yeast display plasmid; c-Myc tag used to detect expression

- binding result [1]: binds
- Kd [11]: 0.063 nM
- binding result [12]: no binding
- binding result [13]: binds
- Kd [14]: 0.131 nM
B8: soluble eCNTFR fused to an antibody Fc domain (Fc fusion)
chain: QRHSPQEAPHVQYERLGSDVTLPCGTANWDAAVTWRVNGTDLAPDLLNGSQLVLHGLELGHSGLYACFHRDSWHLRHQVLLHVGLPPQEPVLSCRSNTYPKGFYCSWHLPTPTYIPNTFNVTVLHGSKIMVCEKDPALKNRCHIRYMHLFSPIKHNVSISVSNALGHNATAITFDEFTIVKPDPPENVVARPVPSNPRRLEVTWQTPSTWPDPEFFPLKFFLRYRPLILDQWQHVELSDGTAHTIAAAYAGKEYIIQVAAKDNEFGTWSDWSVAAHATPWTEEPRHLTTEAQAAETTTSTTSSLAPPPTTKICDPGELGSRRLEPRGPTIKPCPPCKCPAPNLLGGPSVFIFPPKIKDVLMISLSPIVTCVVVDVSEDDPDVQISWFVNNVEVHTAQTQTHREDYNSTLRVVSALPIQHQDWMSGKEFKCKVNNKDLPAPIERTISKPKGSVRAPQVYVLPPPEEEMTKKQVTLTCMVTDFMPEDIYVEWTNNGKTELNYKNTEPVLDSDGSYFMYSKLRVEKKNWVERNSYSCSVVHEGLHNHHTTKSFSRTPGK
notes: The tie is the identical set of eight mutations plus an Fc domain; also called eCNTFR-Fc
